Experimental data reported in patent US20090068110A1, “ANTIBODIES TO INSULIN-LIKE GROWTH FACTOR RECEPTOR” (Genentech, Inc., priority 2006, published 2009).

Tests used:
cynomolgus-monkey IGF-1R [1] = test: BIACORE surface-plasmon resonance, cynomolgus-monkey IGF-1R; format: binding; details: IgG, FIG. 15
Description: Binding affinities of selected antibodies to IGF-1R were determined by surface plasmon resonance measurements on a BIACORE™ 3000 instrument (BIAcore, Inc.). Human, murine, or cynomolgus-monkey IGF-1R was immobilized at a density of about 500 RU on the flow cells of a PIONEER™ CM5 sensor chip. Immobilization was achieved by random coupling through amino groups using a protocol provided by the manufacturer. Sensorgrams were recorded for binding of anti-IGF-1R Fab or IgG to these surfaces by injection of a series of solutions ranging from 500 nM to 3.1 nM and 250 nM to 0.78 nM in two-fold increments, respectively. The signal from the reference cell was subtracted from the observed sensorgram. Kinetic constants were calculated by non-linear regression analysis of the data according to a 1:1 Languir binding model using software supplied by the manufacturer.

MCF7 cells = test: cell viability assay ([…]-GLO), MCF7; format: cell-based, human; details: in the presence of IGF-I
Description: The different cell lines were cultured in their respective culture media at 37° C. in a humidified atmosphere of 5% CO2. Subsequently, cells were detached from tissue-culture flasks using the cell-dissociation solution, TRIPLE SELECT™ solution (InVitrogen, Carlsbad, Calif., USA), and centrifuged at 1000 rpm for five minutes. Detached cells were washed once with PBS, counted, and seeded in 96-well plates (Corning, N.Y., USA) at 2000 cells per well in 100 μL of culture media. After an overnight incubation at 37° C. in a humidified atmosphere of 5% CO2, the cell-culture medium was replaced with 50 μL of starvation medium consisting of serum-free RPMI 1640™ medium without phenol red. The cells were then starved for five hours in the incubator before addition of 25 μL of each anti-IGF-1R monoclonal antibody at various dilutions in serum-free RPMI 1640™ phenol red-free media. Later, 25 μL of phenol red-free RPMI 1640™ media supplemented with 4% of fetal bovine serum (FBS) (Sigma) with or without 4 ng/ml of human recombinant IGF-I were added on top of the 50 μL of antibody. The cells were then placed at 37° C. with 5% CO2 for 5 to 6 days. At the end of the assay, cell viability was measured using the […]-GLO® kit according to the manufacturer's instructions (Promega, Madison, Wis., USA).
For the cell viability assay, MCF7 cells were seeded onto 96-well plates at 2000 cells/well and incubated overnight at 37° C. in a humidified atmosphere of 5% CO2/95% air in RPMI 1640™ medium supplemented with 10% FBS (Sigma, St. Louis, Mo.) and 1% GLUTAMAX™ reagent (Promega, Madison, Wis.). The next day cells were starved in serum-free RPMI 1640™ medium (phenol red-free) for five hours followed by addition of serially diluted human chimeric versions of 9F2, 2B4, and 10H5, as well as h10H5.vX, for one hour. Subsequently, phenol red-free PRMI 1640™ medium supplemented with FBS or IGF-I was added to reach a final concentration of 1% FBS and 1 ng/mL IGF-I. Cells were then incubated with continuous IGF-1R antibody exposure. After five days, the cell viability was then determined using a […]-GLO™ kit (Promega, Madison, Wis.) according to the manufacturer's instructions.

IGF-1R [2] = biological target: T1, IGF-1R (Homo sapiens, UniProt P08069); test: antibody-induced IGF-1R down-regulation in MCF7 cells, Western blotting; format: cell-based; parameters: IGF-1R is normally localized at the plasma membrane of MCF7 cells; endogenous in cells; host or cells: MCF7; details: 10 μg/ml, 1, 4, 8 or 24 hours, 10% serum
Description: Further exploration of the mechanism of action of anti-IGF-1R antibodies was carried out by testing the ability of the antibodies of the invention, particularly human chimeric antibodies of 2B4, 9F2, 10H5, as well as human phage antibody YW95.6, to induce IGF-1R down-regulation. MCF7 cells were treated with various antibodies (10 μg/ml) for 1, 4, 8, or 24 hours in the presence of 10% serum-containing medium. The cell lysates were harvested, separated by SDS-PAGE, and analyzed for IGF-1R levels by Western blotting using an anti-IGF-1R beta-chain antibody (Cell Signaling Technology, Inc.; Beverly, Mass., USA) or anti-beta-actin antibody.
In a separate experiment, MCF7 cells were treated with serially diluted h10H5, and the cell lysates were analyzed for IGF-1R and IR levels using anti-IGF-1R and anti-IR β-chain antibodies at 1, 2, 4, and 8 hours post-continuous treatment.

cynomolgus-monkey IGF-1R [3] = biological target: cynomolgus-monkey IGF-1R (cynomolgus monkey, UniProt G7P9I7 31-908); test: BIACORE surface plasmon resonance: IGF-1R immobilized on CM5 chip (about 500 RU), IgG injected 250-0.78 nM, 25 C, 1:1 Langmuir model (apparent affinity)
cynomolgus-monkey IGF-1R (cynomolgus monkey, UniProt G7P9I7 31-908), sequence (G7P9I7 entry or part of it): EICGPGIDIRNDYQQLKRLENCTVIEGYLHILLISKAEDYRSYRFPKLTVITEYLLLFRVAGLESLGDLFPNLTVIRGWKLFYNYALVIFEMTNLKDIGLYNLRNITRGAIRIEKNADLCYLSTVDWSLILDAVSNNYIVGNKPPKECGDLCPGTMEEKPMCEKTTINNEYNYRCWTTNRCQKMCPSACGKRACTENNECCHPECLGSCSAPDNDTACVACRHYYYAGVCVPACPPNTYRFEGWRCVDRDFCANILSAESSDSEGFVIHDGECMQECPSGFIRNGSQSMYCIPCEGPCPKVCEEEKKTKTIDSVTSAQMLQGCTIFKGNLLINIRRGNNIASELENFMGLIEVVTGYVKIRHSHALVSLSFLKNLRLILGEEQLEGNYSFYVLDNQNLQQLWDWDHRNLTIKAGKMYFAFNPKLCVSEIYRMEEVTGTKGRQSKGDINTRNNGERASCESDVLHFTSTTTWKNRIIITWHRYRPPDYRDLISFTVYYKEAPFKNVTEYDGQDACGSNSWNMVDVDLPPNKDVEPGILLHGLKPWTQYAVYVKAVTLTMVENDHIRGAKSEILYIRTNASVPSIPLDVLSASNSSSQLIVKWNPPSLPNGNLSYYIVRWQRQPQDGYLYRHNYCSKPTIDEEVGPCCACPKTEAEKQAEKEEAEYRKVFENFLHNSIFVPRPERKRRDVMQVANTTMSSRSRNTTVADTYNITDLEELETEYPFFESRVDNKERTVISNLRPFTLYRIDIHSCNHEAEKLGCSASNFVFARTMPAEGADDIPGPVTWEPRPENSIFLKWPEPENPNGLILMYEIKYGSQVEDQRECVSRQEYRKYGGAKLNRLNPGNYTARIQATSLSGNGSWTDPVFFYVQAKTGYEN

human IGF-1R-ECD = biological target: T2, human IGF-1R-ECD (Homo sapiens, UniProt P08069); test: competitive ELISA, blocking of IGF-I/II and IGF-1R interaction; format: binding; details: antibody 100 nM to 0.0976 nM, biotinyl-IGF-I or IGF-II 60 ng/ml
T2 construct: containing the extracellular domain (ECD, amino acids 1-902) tagged with 10 or 12 histidine residues at the carboxyl terminus; His10 or His12 (C); made in house; host or cells: CHO cells
Description: To determine whether the anti-IGF-1R antibodies could block ligand/receptor interaction, competitive ELISA was utilized. Human IGF-1R-ECD was coated overnight at 4° C. at 1 μg/ml in a 96-well immunoplate (Nalge Nunc International, Rochester, N.Y., USA). The ELISA plate was washed with wash buffer (PBS, 0.05% TWEEN™ 20 surfactant, pH 7.4), and 150 μl/well of blocking buffer (PBS with 0.5% BSA) was added for one hour at room temperature with gentle agitation. Purified anti-IGF-1R antibodies were first subjected to a two-fold dilution from 100 nM to 0.0976 nM in assay buffer (PBS, 0.5% BSA and 0.05% TWEEN™ 20 surfactant, pH 7.4) and added to the immunoplate to incubate at room temperature for one hour. Biothinyl-IGF-I or IGF-II at 60 ng/ml concentrations (Cell Science, Canton, Mass., USA) was then added and incubated for another 30 minutes. The ELISA plate was washed three times, and 100 μl/well of streptavidin-HRP (GE Healthcare, Piscataway, N.J., USA) at a dilution of 1:6,000 was added for 20 minutes. Color development was conducted as described in conjunction with the direct ELISA. The selected anti-IGF-1R antibodies inhibited IGF-I or IGF-II binding to IGF-1R to various degrees (FIGS. 19A and 19B for IGF-I and IGF-II, respectively).

[4] = test system: IGF-1R signaling (phospho-IGF-1R, AKT, ERK1/2); test: Western blotting of IGF-1R signaling in MCF7 cells; format: cell-based, human
Description: Also examined was the effect of these antibodies on ligand-dependent IGF-1R signaling by directly analyzing IGF-1R phosphorylation as well as major downstream pathways, such as AKT and MAPK activation. In this assay, MCF7 cells were grown in 6-well plates and serum was withdrawn for 16 hours. […] The cells were directly lysed in SDS sample buffer, and the lysate was analyzed by Western blotting using antibodies against IGF-1R, phospho-IGF-1R, AKT, phospho-AKT, ERK1/2, phospho-ERK1/2 (also called MAPK1/2 and phospho-MAPK1/2) (all from Cell Signaling Technology, Inc.; Beverly, Mass., USA).
For the IGF-1R signaling pathway analysis, MCF7 cells were grown in six-well plates for 24 hours and then serum starved (serum-free and phenol-free RPMI medium supplemented with 1 mg/mL BSA) overnight. The cells were first incubated with h10H5 for 20 minutes, then stimulated with 50 ng/mL IGF-1 or 100 ng/mL IGF-11 for ten minutes. Cells were directly lysed in SDS sample buffer to preserve protein phosphorylation. After brief sonication, the lysates were separated by SDS-PAGE and transferred to nitrocellulose membranes (Invitrogen; Carlsbad, Calif.), which were probed with anti-phospho-IGF-1R, AKT, and ERK1/2 antibodies. The same blots were then stripped using Stripping Buffer™ (Pierce Biotechnology; Rockford, Ill.) and re-probed with antibodies against total IGF-1R β, AKT, and ERK1/2.

IGF-1R [5] = biological target: T1, IGF-1R; test: KIRA assay of IGF-1R phosphorylation in MCF7 cells; format: cell-based; parameters: IGF-1R is normally localized at the plasma membrane of MCF7 cells; endogenous in cells; host or cells: MCF7; details: IGF-I 10 ng/ml or IGF-II 50 ng/ml; ranking upon IGF-II stimulation
Description: Also examined was whether the blocking activity of these antibodies was sufficient to interfere with receptor activation, which is measured by IGF-1R phosphorylation. A KIRA assay (kinase receptor activation) was utilized to perform quantitative analysis of IGF-1R phosphorylation in MCF7 cells. Anti-IGF-1R antibodies in serial dilutions (0.19 to 200 nM in medium) were added to MCF7 cells in 96-well plates for one hour. IGF-I (10 ng/ml) or IGF-11 (50 ng/ml) was subsequently added and incubated for ten minutes. The cells were lysed, and the resulting lysates were transferred to an ELISA plate, which was coated with IGF-1R-capturing antibody 3B7 (250 ng/well). After incubation for two hours, the cell lysate was removed, and the plates were washed. Phosphotyrosine-specific antibody 4G10 (Upstate, Charlottesville, Va., USA) was added to detect IGF-1R phosphorylation through TMB peroxidase substrate.

Molecule	binding to human versus cyno IGF-1R (cynomolgus-monkey IGF-1R [1])	comparison of inhibitory effect on MCF7 proliferation / viability (MCF7 cells)	IGF-1R down-regulation (IGF-1R [2])	further results
chimeric 10H5: human chimeric version of murine 10H5, human IgG1 (antibody, V domains shown) VH: QVQLQQPGAELVKPGASVTLSCKASGYTFTRFWIHWVKQRPGQGLEWIGEINPSNGRTNYNENFKNKATLTVDTSSSTAYMQLSSLTSEVSVVYYCARGGRLDQWGQGTT VL: DIVMTQSQKFMSTSLGDRVSVTCKASQNVGSNVAWYQQKPGQSPEALIYSASYRYSGVPDRFTGSGSGTDFTLTISNVQSEDLAEYFCHQYNNYPYTFGGGTKVEIKR	comparable for human and cyno IGF-1R	equivalent at decreasing the MCF7 cell viability	rapidly down-regulated and reached maximal reduction by eight hours	–
chimeric 9F2-IgG (antibody, V domains shown, also called human chimeric 9F2) VH: QIQLVQSGPELKKPGETVKISCKASGYTLANYGMNWVKQAPGKGFKWMGWINTNTGKPTYSDEFKGRFVFSLETSASTAYLLINNLSNEDTATYFCARSIYYYGSRYFNVWGAGTT VL: DIQMTQSTSSLSASLGDRVTISCRASQDINNYLTWYQQKPDGTVKLLIYYTSRLHSGVPSRFSGSGSGTDYSLTITNLEQEDFATYFCQQGNTLPWTFGEGTKVEIKR	–	–	–	Kd (cynomolgus-monkey IGF-1R [3]): 170 pM
2B4: mouse monoclonal anti-IGF-1R antibody from hybridoma 2B4.2.8, ATCC PTA-7009 (antibody, V domains shown) VH: QIQLVQSGPELKKPGETVKISCKASGYNLANYGLNWVKQAPGEGLKWMGWINTNTGAPTYAEEFKGRFVFFLETSASTAYLQINNLSDEDTATYFCARSIYYYASRYFNVWGAGTS VL: DIQMTQTTSSLSASLGDKVTISCRASQDISNYLNWYQQKPDGTIKLLIYYTSRLHSGIPSRFSGSGSGTDYSLTISNLEQEDIATYFCQQGNTLPWTFGGGTKVEIKR	–	–	–	inhibition of IGF-I or IGF-II binding to IGF-1R (human IGF-1R-ECD): most potent group; inhibition of IGF-I-mediated AKT activation ([4]; serum-starved MCF7, IGF-I 50 ng/ml): potently prevented AKT activation; inhibition of IGF-II-mediated IGF-1R phosphorylation and downstream AKT and MAPK1/2 activation ([4]; serum-starved MCF7, IGF-II 100 ng/ml): remained as strong inhibitors; inhibition of IGF-I/II-mediated IGF-1R phosphorylation (KIRA) (IGF-1R [5]): most effective group
chimeric 9F2: human chimeric version of murine 9F2, human IgG1 (antibody, V domains shown) VH: QIQLVQSGPELKKPGETVKISCKASGYTLANYGMNWVKQAPGKGFKWMGWINTNTGKPTYSDEFKGRFVFSLETSASTAYLLINNLSNEDTATYFCARSIYYYGSRYFNVWGAGTT VL: DIQMTQSTSSLSASLGDRVTISCRASQDINNYLTWYQQKPDGTVKLLIYYTSRLHSGVPSRFSGSGSGTDYSLTITNLEQEDFATYFCQQGNTLPWTFGEGTKVEIKR	comparable for human and cyno IGF-1R	equivalent at decreasing the MCF7 cell viability	rapidly down-regulated and reached maximal reduction by eight hours	–
